In the series the target is SIM1 bHLH-PASA-PASB;ARNT2 bHLH-PASA-PASB (;, UniProt P81133;Q9HBZ2 1-348;1-455, |). As to the kind of experiment: EMSA; preferred over HIF2a probe; EMSA: 10 nM probe, 20 mM Tris pH 8.0, 250 mM NaCl, 16 ug/ml salmon sperm ssDNA, 30 ug/ml BSA, 1.25 mM MgCl2, 6% glycerol, 10 mM DTT, room temperature 30 min, 5-7% native PAGE. As to conditions: protein: recombinant;recombinant; tags: 6xHis-TEV, tag removed;untagged; copies: 1;1; label: FAM (upper strand); blunt. A general note: A gel shift assay detects complexes by their altered migration in electrophoresis.
SIM1 bHLH-PASA-PASB;ARNT2 bHLH-PASA-PASB, sequence (P81133 1-348, chain 1 of 2): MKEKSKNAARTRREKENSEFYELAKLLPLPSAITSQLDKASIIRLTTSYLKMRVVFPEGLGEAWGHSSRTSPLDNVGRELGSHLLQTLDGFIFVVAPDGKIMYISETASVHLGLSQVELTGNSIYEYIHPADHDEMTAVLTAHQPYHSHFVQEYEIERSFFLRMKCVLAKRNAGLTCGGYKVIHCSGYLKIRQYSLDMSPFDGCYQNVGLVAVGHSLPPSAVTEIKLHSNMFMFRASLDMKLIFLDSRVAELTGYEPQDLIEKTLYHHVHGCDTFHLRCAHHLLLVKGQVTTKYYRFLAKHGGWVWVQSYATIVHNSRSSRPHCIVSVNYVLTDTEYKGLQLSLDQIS
SIM1 bHLH-PASA-PASB;ARNT2 bHLH-PASA-PASB, sequence (Q9HBZ2 1-455, chain 2 of 2): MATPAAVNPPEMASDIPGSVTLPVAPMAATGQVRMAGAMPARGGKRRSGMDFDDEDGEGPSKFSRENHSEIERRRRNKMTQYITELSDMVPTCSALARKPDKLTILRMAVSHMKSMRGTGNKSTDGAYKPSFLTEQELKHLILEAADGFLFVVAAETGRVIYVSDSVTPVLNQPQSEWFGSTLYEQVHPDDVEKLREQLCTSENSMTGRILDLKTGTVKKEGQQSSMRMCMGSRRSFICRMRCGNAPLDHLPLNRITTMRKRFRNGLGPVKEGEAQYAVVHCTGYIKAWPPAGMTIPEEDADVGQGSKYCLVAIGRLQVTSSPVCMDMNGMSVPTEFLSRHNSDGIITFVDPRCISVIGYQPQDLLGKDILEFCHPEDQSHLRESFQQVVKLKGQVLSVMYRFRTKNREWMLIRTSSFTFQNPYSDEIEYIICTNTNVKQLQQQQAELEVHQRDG

B1: SRE 22mer (top SIM1/ARNT2 probe) (dsDNA)
DNA 1: AAAAGGTACGTGACCAAAAAGA
DNA 2: TCTTTTTGGTCACGTACCTTTT
With B1, the binding result is “binds”.

These data come from PMC12774657, “Multimodal bHLH-PAS DNA binding controls specificity and drives obesity”.
